Experimental data reported in patent US8232067B2, “Disrupting FCRN-albumin interactions” (Brigham & Women's Hospital, Inc., priority 2009, dated 2012).

How the values were obtained:
[1] = Serum and bile measurements after tail vein infusion (ELISA); assay type: in vivo; details: FcRn deficient mice vs wild-type, 24 hours after infusion
Description: Human IgG and rat albumin were administered via the tail vein to wild-type (WT) or FcRn deficient (−/−) mice 24 hours prior to the harvest of serum and bile. For serum and bile measurements, mice were euthanized before blood was removed via the heart and the bile was removed via the gallbladder. Concentration of IgG and albumin were measured by ELISA. Similar results were obtained from bile collected via common bile duct cannulation.
After 24 hours, blood/serum and gallbladder bile were removed as described in Example 1.

Balb/c mice = test: Mortality assay (1); assay type: in vivo; details: 12 mg of acetaminophen; mice deficient in FcRn compared to wild-type Balb/c mice
Description: Wild-type Balb/c mice and Balb/c mice deficient in FcRn were administered 12 mg of acetaminophen. The dose administered is equivalent to 42 g in a 70 kg human (84 tabs of 500 mg extra strength Tylenol™ (acetaminophen)).

Compound	levels of rat albumin in the bile [1]	mortality (Balb/c mice)
rat albumin: Rat serum albumin administered via the tail vein to mice	elevated levels	–
CC(=O)Nc1ccc(O)cc1 [acetaminophen]	–	decreased mortality
